For this data set, the system named is Escherichia coli TOP10. In words: shrunken log2 fold change of peptide-encoding DNA abundance (4.5 h post-induction vs induction); higher = less antimicrobial activity (less host growth inhibition). To be noted: time post-induction: 4.5 h; library: site-saturation at positions 5, 18, 19, 20.
Take RRIRARPPRLPRPRPRPHCDPRP: the “shrunken log2 fold change” value amounted to 0.214.

Turning to RRIRFRPPRLPRPRPRPKNPPRP, the “shrunken log2 fold change” value is -0.00149.

With RRIRPRPPRLPRPRPRPYKWPRP, the “shrunken log2 fold change” value is -0.296.

As for RRIRGRPPRLPRPRPRPGKGPRP, the “shrunken log2 fold change” value came out at 0.394.

For the sequence RRIRNRPPRLPRPRPRPKLMPRP, the “shrunken log2 fold change” value was -0.109.

RRIRRRPPRLPRPRPRPEVEPRP: the “shrunken log2 fold change” value is 0.0165.

In the case of RRIRHRPPRLPRPRPRPDCIPRP, the “shrunken log2 fold change” value was -0.0444.

For the sequence RRIRGRPPRLPRPRPRPCKQPRP, the “shrunken log2 fold change” value stood at 0.0431.

With RRIRKRPPRLPRPRPRPGAQPRP, the “shrunken log2 fold change” value was 0.496.

As for RRIRFRPPRLPRPRPRPGVIPRP, the “shrunken log2 fold change” value is -0.356.

RRIRARPPRLPRPRPRPGYCPRP: the “shrunken log2 fold change” value was -0.012.

Take RRIRLRPPRLPRPRPRPMSKPRP: the “shrunken log2 fold change” value was 0.0198.

As to RRIRWRPPRLPRPRPRPFWYPRP, the “shrunken log2 fold change” value is -0.214.

On to RRIRHRPPRLPRPRPRPFKNPRP, for which the “shrunken log2 fold change” value was -0.0803.

For RRIRPRPPRLPRPRPRPTKVPRP, the “shrunken log2 fold change” value was -0.0777.

Turning to RRIRLRPPRLPRPRPRPEYWPRP, the “shrunken log2 fold change” value is -0.0516.

On to RRIRHRPPRLPRPRPRPQLNPRP, for which the “shrunken log2 fold change” value is -0.593.

For RRIRWRPPRLPRPRPRPACVPRP, the “shrunken log2 fold change” value stood at 0.347.

Take RRIRKRPPRLPRPRPRPHEDPRP: the “shrunken log2 fold change” value was 0.139.

In the case of RRIRRRPPRLPRPRPRPYGCPRP, the “shrunken log2 fold change” value is -0.00402.

In the case of RRIRFRPPRLPRPRPRPAHHPRP, the “shrunken log2 fold change” value was -0.152.

RRIRKRPPRLPRPRPRPIDIPRP: the “shrunken log2 fold change” value amounted to 0.00848.

On to RRIRIRPPRLPRPRPRPIDVPRP, for which the “shrunken log2 fold change” value worked out at 0.00859.

Regarding RRIRVRPPRLPRPRPRPMFRPRP, the “shrunken log2 fold change” value is -0.048.

Regarding RRIRHRPPRLPRPRPRPLKDPRP, the “shrunken log2 fold change” value is -0.361.

RRIRLRPPRLPRPRPRPQDSPRP: the “shrunken log2 fold change” value is -0.276.

On to RRIRHRPPRLPRPRPRPEWRPRP, for which the “shrunken log2 fold change” value is -0.0322.

As for RRIRMRPPRLPRPRPRPAHWPRP, the “shrunken log2 fold change” value is 0.792.

Take RRIRARPPRLPRPRPRPTLFPRP: the “shrunken log2 fold change” value stood at 0.663.

RRIRLRPPRLPRPRPRPPFIPRP: the “shrunken log2 fold change” value is -0.635.

RRIRPRPPRLPRPRPRPDMGPRP: the “shrunken log2 fold change” value is -0.407.

As to RRIRFRPPRLPRPRPRPMFPPRP, the “shrunken log2 fold change” value was -0.368.

As to RRIRTRPPRLPRPRPRPMVPPRP, the “shrunken log2 fold change” value is -0.0651.

Turning to RRIRRRPPRLPRPRPRPYNAPRP, the “shrunken log2 fold change” value was -0.964.

On to RRIRHRPPRLPRPRPRPRKDPRP, for which the “shrunken log2 fold change” value was -0.0956.

In the case of RRIRMRPPRLPRPRPRPKATPRP, the “shrunken log2 fold change” value amounted to 0.0633.

With RRIRLRPPRLPRPRPRPNAQPRP, the “shrunken log2 fold change” value is -0.0471.

For the sequence RRIRARPPRLPRPRPRPINMPRP, the “shrunken log2 fold change” value is -0.346.

Take RRIRKRPPRLPRPRPRPCQWPRP: the “shrunken log2 fold change” value is -0.0983.

As for RRIRSRPPRLPRPRPRPCFMPRP, the “shrunken log2 fold change” value stood at 0.914.

Consider RRIRVRPPRLPRPRPRPTDRPRP, for which the “shrunken log2 fold change” value was -0.00137.

As for RRIRCRPPRLPRPRPRPGDRPRP, the “shrunken log2 fold change” value came to 0.0429.

In the case of RRIRTRPPRLPRPRPRPYGIPRP, the “shrunken log2 fold change” value is -0.0927.

Turning to RRIRLRPPRLPRPRPRPIRKPRP, the “shrunken log2 fold change” value is -0.14.

Regarding RRIRQRPPRLPRPRPRPMNWPRP, the “shrunken log2 fold change” value is -0.0581.

RRIRLRPPRLPRPRPRPCPEPRP: the “shrunken log2 fold change” value is -0.0401.

Take RRIRVRPPRLPRPRPRPELPPRP: the “shrunken log2 fold change” value was -0.0996.

Consider RRIRNRPPRLPRPRPRPVFIPRP, for which the “shrunken log2 fold change” value was -0.459.

Consider RRIRERPPRLPRPRPRPYPKPRP, for which the “shrunken log2 fold change” value is -0.405.

For the sequence RRIRPRPPRLPRPRPRPFHIPRP, the “shrunken log2 fold change” value was -0.161.

For RRIRPRPPRLPRPRPRPSQSPRP, the “shrunken log2 fold change” value is -0.0693.

Turning to RRIRIRPPRLPRPRPRPNSVPRP, the “shrunken log2 fold change” value was -0.342.

Take RRIRFRPPRLPRPRPRPPCEPRP: the “shrunken log2 fold change” value was 0.409.

Take RRIRLRPPRLPRPRPRPCEMPRP: the “shrunken log2 fold change” value was -0.0934.

Consider RRIRDRPPRLPRPRPRPGFCPRP, for which the “shrunken log2 fold change” value turned out to be 0.567.

Consider RRIRTRPPRLPRPRPRPMQWPRP, for which the “shrunken log2 fold change” value was found to be 0.0688.

As for RRIRCRPPRLPRPRPRPTHCPRP, the “shrunken log2 fold change” value turned out to be 0.363.

In the case of RRIRFRPPRLPRPRPRPARHPRP, the “shrunken log2 fold change” value stood at 0.262.

As to RRIRFRPPRLPRPRPRPIMNPRP, the “shrunken log2 fold change” value was -0.515.

For RRIRIRPPRLPRPRPRPWGWPRP, the “shrunken log2 fold change” value turned out to be 0.0753.

As to RRIRARPPRLPRPRPRPCGEPRP, the “shrunken log2 fold change” value was -0.00932.

Take RRIRLRPPRLPRPRPRPKDVPRP: the “shrunken log2 fold change” value is -0.0185.

As for RRIRNRPPRLPRPRPRPMAVPRP, the “shrunken log2 fold change” value is -0.0402.

For the sequence RRIRLRPPRLPRPRPRPCKHPRP, the “shrunken log2 fold change” value is -0.0106.

As to RRIRERPPRLPRPRPRPPPMPRP, the “shrunken log2 fold change” value stood at 0.271.

In the case of RRIRLRPPRLPRPRPRPHSLPRP, the “shrunken log2 fold change” value came to 0.0368.

With RRIRIRPPRLPRPRPRPQQSPRP, the “shrunken log2 fold change” value is -0.113.

On to RRIRIRPPRLPRPRPRPVPVPRP, for which the “shrunken log2 fold change” value stood at 0.0789.

In the case of RRIRLRPPRLPRPRPRPLFMPRP, the “shrunken log2 fold change” value was -0.546.

Regarding RRIRDRPPRLPRPRPRPYVCPRP, the “shrunken log2 fold change” value turned out to be 0.0261.

RRIRYRPPRLPRPRPRPALMPRP: the “shrunken log2 fold change” value is -0.226.

As for RRIRVRPPRLPRPRPRPQHHPRP, the “shrunken log2 fold change” value is -0.182.

In the case of RRIRWRPPRLPRPRPRPVTAPRP, the “shrunken log2 fold change” value turned out to be 0.138.

Consider RRIRMRPPRLPRPRPRPWTVPRP, for which the “shrunken log2 fold change” value was -0.248.

Consider RRIRLRPPRLPRPRPRPGLTPRP, for which the “shrunken log2 fold change” value was -0.00899.

For the sequence RRIRWRPPRLPRPRPRPLIEPRP, the “shrunken log2 fold change” value stood at 0.00804.

As for RRIRKRPPRLPRPRPRPFLLPRP, the “shrunken log2 fold change” value is -0.399.

RRIRMRPPRLPRPRPRPPISPRP: the “shrunken log2 fold change” value was 0.163.

As for RRIRKRPPRLPRPRPRPKEFPRP, the “shrunken log2 fold change” value was determined as 0.232.

Consider RRIRVRPPRLPRPRPRPVKVPRP, for which the “shrunken log2 fold change” value was found to be 0.0348.

Take RRIRSRPPRLPRPRPRPSGQPRP: the “shrunken log2 fold change” value is -0.0423.

Turning to RRIRARPPRLPRPRPRPWFEPRP, the “shrunken log2 fold change” value is -0.0275.

Turning to RRIRGRPPRLPRPRPRPPGSPRP, the “shrunken log2 fold change” value was 1.09.

Take RRIRGRPPRLPRPRPRPVNKPRP: the “shrunken log2 fold change” value was 0.0892.

On to RRIRCRPPRLPRPRPRPEQHPRP, for which the “shrunken log2 fold change” value was determined as 0.0913.

With RRIRYRPPRLPRPRPRPIIQPRP, the “shrunken log2 fold change” value was -0.0128.

For the sequence RRIRVRPPRLPRPRPRPKQTPRP, the “shrunken log2 fold change” value was -0.0483.

On to RRIRTRPPRLPRPRPRPIKSPRP, for which the “shrunken log2 fold change” value was -0.61.

RRIRIRPPRLPRPRPRPKDPPRP: the “shrunken log2 fold change” value is -0.111.

In the case of RRIRFRPPRLPRPRPRPGTDPRP, the “shrunken log2 fold change” value was -0.11.

For the sequence RRIRFRPPRLPRPRPRPITDPRP, the “shrunken log2 fold change” value came to 0.0437.

For RRIRKRPPRLPRPRPRPWWDPRP, the “shrunken log2 fold change” value is -0.0115.

Regarding RRIRQRPPRLPRPRPRPSVEPRP, the “shrunken log2 fold change” value is 0.218.

With RRIRFRPPRLPRPRPRPIPCPRP, the “shrunken log2 fold change” value is -0.256.

With RRIRQRPPRLPRPRPRPPIMPRP, the “shrunken log2 fold change” value was -0.344.

As to RRIRGRPPRLPRPRPRPRYCPRP, the “shrunken log2 fold change” value was 0.295.

Regarding RRIRQRPPRLPRPRPRPQRAPRP, the “shrunken log2 fold change” value was found to be 0.224.

Consider RRIRWRPPRLPRPRPRPEWGPRP, for which the “shrunken log2 fold change” value is 0.47.

As to RRIRCRPPRLPRPRPRPAWKPRP, the “shrunken log2 fold change” value worked out at 0.0545.

On to RRIRVRPPRLPRPRPRPGPGPRP, for which the “shrunken log2 fold change” value was determined as 0.298.

For the sequence RRIRQRPPRLPRPRPRPDTMPRP, the “shrunken log2 fold change” value amounted to 0.0515.

Regarding RRIRARPPRLPRPRPRPNRLPRP, the “shrunken log2 fold change” value was 0.0862.

Take RRIRMRPPRLPRPRPRPFFSPRP: the “shrunken log2 fold change” value amounted to 0.195.

For RRIRTRPPRLPRPRPRPYNIPRP, the “shrunken log2 fold change” value is -0.131.

As to RRIRHRPPRLPRPRPRPDYRPRP, the “shrunken log2 fold change” value was -0.127.

Consider RRIRHRPPRLPRPRPRPAPPPRP, for which the “shrunken log2 fold change” value came out at 0.854.

Take RRIRQRPPRLPRPRPRPMIHPRP: the “shrunken log2 fold change” value is -0.471.

Take RRIRCRPPRLPRPRPRPISRPRP: the “shrunken log2 fold change” value was -0.503.

Take RRIRYRPPRLPRPRPRPYVDPRP: the “shrunken log2 fold change” value is -0.0075.

As to RRIRTRPPRLPRPRPRPYYIPRP, the “shrunken log2 fold change” value is -0.845.

For RRIRMRPPRLPRPRPRPHQTPRP, the “shrunken log2 fold change” value stood at 0.184.

For the sequence RRIRARPPRLPRPRPRPTEVPRP, the “shrunken log2 fold change” value is 0.173.

Regarding RRIRRRPPRLPRPRPRPGDWPRP, the “shrunken log2 fold change” value is 0.465.

For RRIRARPPRLPRPRPRPIKHPRP, the “shrunken log2 fold change” value was -0.0409.

For the sequence RRIRDRPPRLPRPRPRPGTFPRP, the “shrunken log2 fold change” value came out at 0.00435.

For RRIRFRPPRLPRPRPRPPWAPRP, the “shrunken log2 fold change” value amounted to 0.267.

Turning to RRIRKRPPRLPRPRPRPFSHPRP, the “shrunken log2 fold change” value was -0.131.

Regarding RRIRWRPPRLPRPRPRPNLSPRP, the “shrunken log2 fold change” value was -0.197.

In the case of RRIRTRPPRLPRPRPRPWYKPRP, the “shrunken log2 fold change” value was -0.0134.

RRIRTRPPRLPRPRPRPSAHPRP: the “shrunken log2 fold change” value is -0.229.

As for RRIRSRPPRLPRPRPRPMRYPRP, the “shrunken log2 fold change” value amounted to 0.215.

With RRIRIRPPRLPRPRPRPTQDPRP, the “shrunken log2 fold change” value was -0.236.

As for RRIRKRPPRLPRPRPRPFVSPRP, the “shrunken log2 fold change” value is -0.176.

In the case of RRIRPRPPRLPRPRPRPILKPRP, the “shrunken log2 fold change” value was -0.14.

Regarding RRIRCRPPRLPRPRPRPPNFPRP, the “shrunken log2 fold change” value is -0.0525.
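Note: peptides expressed intracellularly from a pBAD plasmid library in pooled LB shake-flask culture, induced with 0.3% L-arabinose, DNA abundance read by NGS, three biological replicates, DESeq2 with apeglm shrinkage.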
